How the values were obtained:
[1] = test system: MAN12 derived hepatocytes; assay: Protein secretion (ELISA) and CYP p450 activity of MAN12 derived hepatocytes; format: cell-based, human; conditions: CYP1A2 and CYP3A activity, days 18, 20 and 24
Description: (§1) MAN12 cells, a GMP grade cell line, were plated on three different substrates. The first substrate was Matrigel® (MG), and served as a control. The second substrate was coated with 5 micrograms per square centimeter (μg/cm^2) of laminin-521 (LN-521). […] The cells were then differentiated according to the Cameron protocol.
FIG. 15 is a set of four bar graphs. The first row of two graphs show hepatocyte protein secretion for alpha fetoprotein and albumin as analyzed by ELISA on day 24 of differentiation (n=3). No significant differences were observed across the three matrices. The second row of two graphs show the metabolic function of CYP p450 activity on days 18, 20, and 24 for CYP1A2 and CYP3A activity.
Looking at both Example 4 and Example 5, the MAN11 and MAN12 cells differentiated efficiently on all three substrates, with the majority of cells (>80%) expressing albumin and CYP3A, as detected by immunostaining.

[2] = test system: stem cell derived hepatocytes; assay: CYP3A and CYP1A2 activity using pGlo technology; format: cell-based, human; conditions: days 16-26
Description: Given that cell organisation and cell division are important factors in hepatocyte function, hepatocyte metabolic capacity in vitro was studied. Stem cell derived hepatocytes were first examined for cytochrome P450 expression using well characterised antisera. CYP3A and CYP1A2 activity were measured from days 16-26 using pGlo technology. CYP activity was expressed as relative light units (RLU) per milliliter of media per milligram of protein. Levels of significance were measured by student t-test.
All of the cells expressed high levels of each marker on each substrate.

[3] = test system: primary human hepatocytes (PHHs); assay: Primary human hepatocyte metabolism and protein production on the substrates; format: cell-based; conditions: female PHHs, ELISA
Description: Cryoplateable human hepatocytes were plated and maintained according to the instructions of vendor Life Technologies. Briefly, cryoplateable hepatocytes were resuscitated in thawing medium (Life Technologies, catalog no. CM3000) and plated onto the pre-coated 96 well plates. Cells-attached to all matrices efficiently and were maintained in an incubator set at 37 degrees Celsius and CO2 levels set to 5%. At 24 hours post-plating, the medium was changed to an incubation medium (catalog no. CM4000).
To determine whether these large changes in metabolic capacity correlated to increased protein production, the production of albumin and alpha fetoprotein (AFP) from hESC-derived and cryoplatable hepatocytes was quantified using commercially available enzyme-linked immunosorbent assay (ELISA) kits. The different media were collected at denoted time points during hESC differentiation, days 20-26. […] Samples were run in triplicate and measured on a FLUOStar Omega multi-mode microplate reader. Protein production was expressed as ng or μg of protein per milliliter of media, per milligram of protein. The results are shown in FIG. 7, where the expression of these two proteins was measured on days 20, 22, 24, and 26 of differentiation. Despite the large changes in metabolic capacity, no significant differences in albumin or AFP secretion was detected by ELISA. […]

[4] = test system: stem-cell derived hepatocytes; assay: Phase contrast morphology and MRP1/HNF4a co-immunostaining (functional organization); format: cell-based, human; conditions: day 24
Excerpt: FIG. 8 is a set of nine photomicrographs from day 24 of differentiation.
The phase contrast images also indicated hepatocytes were arranged in lobule-like structures within the culture dish, reminiscent of regenerating liver.
Around these lobule structures, positive staining for MRP-1, an important basal membrane marker, was detected.

MAN11 cells = assay: Immunostaining of ALB and CYP3A in MAN11 derived cells (Example 5); format: cell-based, human; conditions: MAN11, Day 18, Cameron protocol
Description: as §1, with “MAN11 cells, another” for “MAN12 cells, a”, “MAN11 cells, another GMP grade” for “MAN12 cells, a GMP grade”
FIG. 16 is a set of 15 photomicrographs at 10× magnification, organized into three columns and five rows. […] Row A is a set of phase contrast images of morphology. The scale bars are 200 μm. Row B is a set of photomicrographs showing the immunofluorescent staining of albumin (ALB) on the three different matrices. Row C is a set of photomicrographs showing the immunofluorescent staining of cytochrome P450 3A (CYP3A). Row D is a set of photomicrographs showing the immunofluorescent staining of multidrug resistance protein 1 (MRP1). Row E is a set of photomicrographs showing immunoglobulin G control staining for sheep, mouse, and rabbit antisera. All of these photos were taken on Day 18.

[5] = test system: H9 hESCs differentiating to hepatocyte like cells; assay: Quantitative PCR gene expression during differentiation; format: cell-based, human; conditions: days 0, 3, 9, 18; normalized to GAPDH
Description: Total RNA was isolated from cells using Trizol reagent. RNA quantification and quality was assessed using a Nanodrop system. The Life Technologies Superscript III reverse transcription kit was employed to prepare the cDNA. Quantitative PCR was performed with Taqman Fast Advance Mastermix and the appropriate primer pair and analysed using a Roche LightCycler 480 Real-Time PCR System. Gene expression was normalized to glyceraldehyde 3-phosphate dehydrogenase (GAPDH) and expressed as relative expression over the control sample (hESC on Day 0 of differentiation). Quantitative PCRs were performed in triplicate. Data analysis was performed using Roche LightCycler 480 Software (version 1.5). […] Cell extracts were collected during differentiation and mRNA assessed on days 0, 3, 9, and 18. […] It should be remembered that the “LN-511” label refers to a substrate containing a blend of laminin-521 and laminin-111 at a 1:3 weight ratio. FIG. 3 is a set of six bar graphs showing gene expression during differentiation on the three substrates (MG, LN-521, and LN-511) for six different genes whose name is above each graph. Relative gene expression was normalized to the housekeeping gene GAPDH. […] Endoderm associated gene FOXA2 peaked on all substrates on day 3 and then decreased thereafter. […] HNF4A was detected at day 3 on all substrates, but by day 9, significant differences in expression patterns emerged.

LN-521: substrate coated with 5 μg/cm^2 of laminin-521, the protein formed by joining α5, β2 and γ1 chains
metabolic activity of MAN12 derived hepatocytes [1]: improved metabolic activity | CYP1A2 activity compared with MG control [2]: significantly greater than it was on the control | albumin production [3]: enhanced | MRP-1 staining, hepatocyte organisation [4]: exhibited networks of organised hepatocytes in vitro | ALB, percentage of positive cells and standard deviation (MAN11 cells): 89.2% ± 6.0 | CYP3A, percentage of positive cells and standard deviation (MAN11 cells): 90.8% ± 9.9 | AFP gene expression over time [5]: peaking on day 9 then decreasing at day 18 | HNF4A gene expression over time [5]: highest on day 9, decreasing by day 18

From US10683486B2, “Methods for producing hepatocytes” (BioLamina AB, priority 2015, dated 2020)
